Test results from US20020102262A1, “Collagen binding protein compositions and methods of use” (priority 1996, published 2002).
Changes are numbered by the printed parent chain. Several values for one entry are separate records, joined by “and”; a condition that tells them apart may be missing. Equal entries are not always repeated.

B1: 212Q→A (protein)
chain: ITSGNKSTNVTVHKSEAGTSSVFYYKTGDMLPEDTTHVRWFLNINNEKSYVSKDITIKDQIAGGQQLDLSTLNINVTGTHSNYYSGQSAITDFEKAFPGSKITVDNTKNTIDVTIPQGYGSYNSFSINYKTKITNEQQKEFVNNSQAWYQEHGKEEVNGKSFNHTVHN
B2: 278N→K (protein)
chain: B1 chain with A62Q, N128K
B3: 225N→K (protein)
chain: B1 chain with A62Q, N75K
B4: 189R→A (protein)
chain: B1 chain with R39A, A62Q
B5: 223N→K (protein)
chain: B1 chain with A62Q, N73K
B6: 175Y→K (protein)
chain: B1 chain with Y25K, A62Q
B7: 193N→K (protein)
chain: B1 chain with N43K, A62Q
B8: 221T→K (protein)
chain: B1 chain with A62Q, T71K
B9: 232N→A (protein)
chain: B1 chain with A62Q, N82A
B10: 233Y→A (protein)
chain: B1 chain with A62Q, Y83A
B11: 191F→A (protein)
chain: B1 chain with F41A, A62Q
B12: Y^233→A (protein)
chain: ARDISSTNVTDLTVSPSKIEDGGKTTVKMTFDDKNGKIQNGDMIKVAWPTSGTVKIEGYSKTVPLTVKGEQVGQAVITPDGATITFNDKVEKLSDVSGFAEFEVQGRNLTQTNTSDDKVATITSGNKSTNVTVHKSEAGTSSVFYYKTGDMLPEDTTHVRWFLNINNEKSYVSKDITIKDQIQGGQQLDLSTLNINVTGTHSNAYSGQSAITDFEKAFPGSKITVDNTKNTIDVTIPQGYGSYNSFSINYKTKITNEQQKEFVNNSQAWYQEHGKEEVNGKSFNHTVHNINANAGIEGTVKGELKVLKQDKDTKAPIANVKFKLSKKDGSVVKDNQKEIEIITDANGIANIKALPSGDYILKEIEAPRPYTFDKDKEYPFTMKDTDNQGYFTTIENAKAIEKTKDVSAQKVWEGTQKVKPTIYFKLYKQDDNQNTTPVDKAEIKKLEDGTTKVTWSNLPENDKNGKAIKYLVKEVNAQGEDTTPEGYTKKENGLVVTNTE
B13: double mutant (protein)
chain: B12 chain with N203A

Test system: S. aureus strain Phillips
Assay: Mouse sepsis model, active immunization, intravenous challenge with S. aureus expressing CBP
Format: in vivo, mice
Conditions: 100μg/mouse on days -31, -18, -7; 2.8×10^7 cfu/mouse i.v. day 0; end day 14
Source text: Gram-positive bacteria related sepsis is on the increase. In fact between one-third and one-half of all cases of sepsis are caused by gram-positive bacteria, particularly S. aureus and S. epidermidis. In the United States, it can be estimated that over 200,000 patients will develop gram-positive related sepsis this year. […] Mice were immunized subcutaneously with either M55 or a control antigen (bovine serum albumin) and then challenged intravenously with S. aureus. Eighty-three percent (35/42) of the mice immunized with M55 survived compared to only 27% of the BSA immunized mice (12/45). This is a compilation of 3 separate studies.
Day -31: 100μg/mouse of a CBP Epitope (i.e. M17, M31, or M55) or BSA emulsified with Freund's Complete adjuvant (Difco Laboratories) as a control.
Day -18: 100μg/mouse of a CBP Epitope (ie. M17, M31, or M55) or BSA dissolved in sterile phosphate buffered saline (PBS)
Day -7: 100μg/mouse of a CBP Epitope (i.e. M17, M31, or M55) or BSA dissolved in PBS
Day 0: inoculate intravenously S. aureus strain Phillips (which expresses CBP) (Dose: 2.8×10^7 cfu/mouse)
Day 14: end of study; all surviving mice were euthanized.

| Molecule | mice died/total |
| --- | --- |
| M17: recombinant S. aureus Col-binding MSCRAMM derivative, amino acids 151-297 of full length CBP (SEQ ID NO:2) | 10/15 |
| M31: recombinant S. aureus Col-binding MSCRAMM derivative, amino acids 61-343 of full length CBP (SEQ ID NO:4) | 12/14 |

Same assay, conditions: in words

| Molecule | protection against sepsis |
| --- | --- |
| full-length sequence: previously-identified full-length S. aureus CBP [reference compound] | does not confer protection against sepsis |

Target: type II Col (collagen type II)
Assay: peptide at 10 µM, inhibition of ^125I-labeled Col binding to S. aureus cells
Conditions: not given

type II Col (collagen type II), sequence (P02459 182-1241): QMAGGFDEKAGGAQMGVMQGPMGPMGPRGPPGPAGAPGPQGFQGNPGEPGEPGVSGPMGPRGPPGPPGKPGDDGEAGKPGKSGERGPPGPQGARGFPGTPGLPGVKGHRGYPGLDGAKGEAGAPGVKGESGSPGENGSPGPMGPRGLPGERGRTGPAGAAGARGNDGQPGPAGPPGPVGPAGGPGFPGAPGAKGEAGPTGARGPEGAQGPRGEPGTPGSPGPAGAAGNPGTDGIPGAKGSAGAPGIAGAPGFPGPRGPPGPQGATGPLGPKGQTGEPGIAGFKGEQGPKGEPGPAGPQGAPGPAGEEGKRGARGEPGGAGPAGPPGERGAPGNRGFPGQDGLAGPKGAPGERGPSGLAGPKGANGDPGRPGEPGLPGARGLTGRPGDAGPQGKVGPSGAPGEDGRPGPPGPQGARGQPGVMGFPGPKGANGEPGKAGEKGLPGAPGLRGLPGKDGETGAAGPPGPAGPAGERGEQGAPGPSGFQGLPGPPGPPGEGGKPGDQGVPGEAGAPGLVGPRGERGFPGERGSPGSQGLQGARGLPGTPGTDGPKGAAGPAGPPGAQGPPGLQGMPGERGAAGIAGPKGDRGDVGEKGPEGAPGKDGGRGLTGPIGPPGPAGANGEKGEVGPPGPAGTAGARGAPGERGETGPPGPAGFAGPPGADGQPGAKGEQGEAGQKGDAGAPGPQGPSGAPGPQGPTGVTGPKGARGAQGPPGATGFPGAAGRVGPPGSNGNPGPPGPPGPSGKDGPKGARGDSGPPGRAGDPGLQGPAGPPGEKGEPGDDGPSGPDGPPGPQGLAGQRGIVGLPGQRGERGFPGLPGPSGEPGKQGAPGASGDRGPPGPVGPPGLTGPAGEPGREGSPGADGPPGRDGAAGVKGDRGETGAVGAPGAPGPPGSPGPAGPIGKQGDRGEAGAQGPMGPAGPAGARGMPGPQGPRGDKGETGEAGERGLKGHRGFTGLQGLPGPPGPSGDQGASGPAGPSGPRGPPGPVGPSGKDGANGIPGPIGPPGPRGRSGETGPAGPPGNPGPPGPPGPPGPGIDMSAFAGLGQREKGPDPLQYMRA

| Molecule | percent inhibition of ^125I-labeled Col binding to S. aureus |
| --- | --- |
| Peptide CBD4 (from UniProt Q53654 209-233) | 76% |

Target: type II Col (collagen type II)
Assay: BIAcore, immobilized type II Col; three-component dissociation, the two fastest components
Conditions: not given

| Molecule | koff |
| --- | --- |
| CBD (30-529), recombinant S. aureus Col MSCRAMM fragment (wild type) (from UniProt Q53654 30-529) | > 0.01 s⁻¹ |

Target: type II Col (collagen type II)
Assay: BIAcore, immobilized type II Col; Scatchard analysis or Equation 1
Conditions: not given

| Molecule | BRapp (apparent binding ratio) |
| --- | --- |
| CBD (30-529) N^232→A:Y^233→A (from UniProt Q53654 30-529) | 2 sites and 3 sites |

Target: type II Col (collagen type II)
Assay: biosensor analysis, equilibrium response; protein passed over covalently immobilized type II Col
Conditions: not given

| Molecule | BR (approximate binding ratio) |
| --- | --- |
| CBD(151-318) 175Y→K (from UniProt Q53654 151-318) | > 20 |
| CBD(151-318) 189R→A (from UniProt Q53654 151-318) | > 13 |
| CBD(151-318) 191F→A (from UniProt Q53654 151-318) | 10 |
| CBD(151-318) 193N→K (from UniProt Q53654 151-318) | 12 |
| CBD(151-318) 212Q→A (from UniProt Q53654 151-318) | 10 |
| CBD(151-318) 221T→K (from UniProt Q53654 151-318) | 9 |
| CBD(151-318) 223N→K (from UniProt Q53654 151-318) | 10 |
| CBD(151-318) 225N→K (from UniProt Q53654 151-318) | 10 |
| CBD(151-318) 232N→A (from UniProt Q53654 151-318) | 12 |
| CBD(151-318) 233Y→A (from UniProt Q53654 151-318) | 11 |
| CBD(151-318) 278N→K (from UniProt Q53654 151-318) | 9 |
| CBD(151-318), recombinant Col-binding domain of the S. aureus CBP (wild type) (from UniProt Q53654 151-318) | 10 |

Target: type II Col (collagen type II)
Assay: peptide (5 µM) incubated with ^125I-Col before addition of S. aureus cells
Conditions: not given

| Molecule | percent inhibition of ^125I-Col binding to S. aureus |
| --- | --- |
| Peptide CBD4 (from UniProt Q53654 209-233) | > 50% |

Target: type II Col (collagen type II)
Assay: BIAcore, immobilized type II Col; three-component dissociation, the slowest component
Conditions: not given

| Molecule | koff |
| --- | --- |
| CBD (30-529), recombinant S. aureus Col MSCRAMM fragment (wild type) (from UniProt Q53654 30-529) | 0.0005 s⁻¹ |

Target: Col type II (Homo sapiens, UniProt P02458)
Assay: Biosensor analysis of CBD(151-318) and single-site mutants binding to Col type II
Conditions: approximate binding ratio
Source text: Mutational analysis was used to evaluate the putative binding site defined by the docking search. […] The surface area covered by the docked Col is about 1630 Å^2, which is 22% of the total solvent-accessible surface of CBD(172-318). […] Nine of these residues were mutated as well as two additional residues outside the putative binding region. The single-site lysine and alanine mutations were designed to disrupt the surface of the putative Col binding groove of wild type CBD(15 1-318). […] The MSCRAMM recognizes generic triple-helical structures (Speziale et al., 1986; Sakakibara et al., 1973; Heidemann and Roth, 1982), therefore, changes in the low-affinity dissociation constants were used to evaluate alterations in the binding of the mutant proteins (House-Pompeo et al., 1994).

Col type II, sequence (P02458 182-1241 limits assumed): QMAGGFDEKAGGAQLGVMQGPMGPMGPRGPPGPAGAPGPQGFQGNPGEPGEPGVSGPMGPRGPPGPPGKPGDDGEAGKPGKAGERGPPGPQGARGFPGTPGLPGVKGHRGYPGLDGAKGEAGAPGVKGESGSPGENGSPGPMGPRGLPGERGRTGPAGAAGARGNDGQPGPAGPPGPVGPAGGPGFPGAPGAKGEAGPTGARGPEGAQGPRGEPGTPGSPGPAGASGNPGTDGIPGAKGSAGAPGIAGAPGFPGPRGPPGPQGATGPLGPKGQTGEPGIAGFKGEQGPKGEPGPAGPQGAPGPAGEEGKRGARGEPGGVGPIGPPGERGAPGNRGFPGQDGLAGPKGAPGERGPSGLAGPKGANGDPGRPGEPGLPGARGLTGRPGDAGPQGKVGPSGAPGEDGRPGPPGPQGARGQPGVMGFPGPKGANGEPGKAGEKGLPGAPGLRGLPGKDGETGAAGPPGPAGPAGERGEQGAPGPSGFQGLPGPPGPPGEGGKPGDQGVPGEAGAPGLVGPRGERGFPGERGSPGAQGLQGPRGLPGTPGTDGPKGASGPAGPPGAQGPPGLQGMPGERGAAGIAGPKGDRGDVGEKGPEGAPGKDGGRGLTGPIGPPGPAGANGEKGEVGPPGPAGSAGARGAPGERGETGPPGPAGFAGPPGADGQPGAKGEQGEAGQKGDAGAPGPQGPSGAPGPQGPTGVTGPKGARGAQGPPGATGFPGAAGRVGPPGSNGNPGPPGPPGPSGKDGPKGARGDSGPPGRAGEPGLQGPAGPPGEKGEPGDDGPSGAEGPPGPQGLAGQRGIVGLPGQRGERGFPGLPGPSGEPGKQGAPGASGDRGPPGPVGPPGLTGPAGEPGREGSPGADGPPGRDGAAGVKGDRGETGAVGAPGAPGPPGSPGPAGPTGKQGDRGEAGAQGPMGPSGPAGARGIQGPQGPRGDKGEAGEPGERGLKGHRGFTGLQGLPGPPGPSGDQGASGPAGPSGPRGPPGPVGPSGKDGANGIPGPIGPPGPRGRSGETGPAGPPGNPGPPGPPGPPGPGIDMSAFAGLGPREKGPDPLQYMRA

| Molecule | BR |
| --- | --- |
| B1 | 10 |
| B2 | 9 |
| B3 | 10 |
| B4 | >13 |
| B5 | 10 |
| B6 | >20 |
| B7 | 12 |
| B8 | 9 |
| B9 | 12 |
| B10 | 11 |
| B11 | 10 |

Same assay, conditions: in words

| Molecule | Col-binding activity / affinity for Col compared with wild type CBD(151-318) |
| --- | --- |
| B1 | did not differ significantly from that of wild type CBD(151-318) |
| B3 | did not differ significantly from that of wild type CBD(151-318) |
| B8 | did not differ significantly from that of wild type CBD(151-318) |
| B9 | did not differ significantly from that of wild type CBD(151-318) |

Target: immobilized type II Col (Homo sapiens, UniProt P02458)
Assay: BIAcore analysis of CBD(30-529) and mutants on immobilized type II Col
Format: binding
Conditions: not given
Source text: The importance of amino acid residues Asn^232 and Tyr ^33 in the MSCRAMM for Col binding was examined by creating specific mutants of CBD (30-529) and characterizing the interactions of these mutants with immobilized type II Col using the BlAcore. In the mutations made, the identified amino acid residues were replaced individually, (N^232 →A, Y^233 →A) or as a pair, (N^232 →A:Y^233→A) with alanine, a residue that is not expected to interfere with the existing secondary structure. The corresponding base changes were made using overlap extension PCR™ as described and the sequence changes confirmed experimentally. The recombinant proteins containing the mutations were purified to homogeneity by metal ion chelating chromatography.
True equilibrium was not obtained during the injection time period due to the slow dissociation rate (koff). […] The dissociation phase gives information about the koff, and this rate is independent of the number of binding sites, analyte concentration, and flow rate. […] The association phase contains the information to determine the association rate koff the interaction, but it is also influenced by the dissociation rate, the number of binding sites for each interaction, and the concentration of the analyte. Because of the complexity of this interaction and the absence of measurable equilibrium data, it was not possible to determine the binding constant (KD), apparent binding ratio (BRapp), and kon.

immobilized type II Col, sequence (P02458 182-1241 limits assumed): as above

| Molecule | affinity and apparent binding ratio compared to wild type |
| --- | --- |
| B12 | even more significant decreasesin affinity and apparent binding ratio |
| B13 | even more significant decreasesin affinity and apparent binding ratio |

Same assay, conditions: Scatchard analysis or Equation 1

| Molecule | apparent binding ratio (BRapp) |
| --- | --- |
| B13 | approximately two to three high affinity sites |
